The test addresses T1, RIα-D/D-GFP (Bos taurus, UniProt P00514).
T1 construct: The dimerization/docking (D/D) domain of RIα and full-length RIIα were each fused with green fluorescent protein (GFP); expressed in transfected cells; host or cells: 10T(1/2) cells
Briefly: Co-localization of PKA regulatory domain with mitochondria-targeted AKB domain in 10T(1/2) cells (Example 3). In kind it is cell-based. The settings on record: C-terminal 156 residues of D-AKAP2 fused to D-AKAP1 mitochondrial anchoring domain. The text has this:
The 30 amino acid mitochondrial anchoring domain of D-AKAP1 (Chen et al. (1997) J. Biol. Chem., 272:15247-57; and Huang et al. (1997) J. Biol. Chem., 272:8057-8064) was fused to the C-terminal 156 residues of mouse (amino acids 217-372 of SEQ ID NO:55) and human (amino acids 507-662 of SEQ ID NO:64) D-AKAP2, respectively, followed by a Flag-tag and subcloned into pcDNA4 (Invitrogen, Carlsbad, Calif.). The dimerization/docking (D/D) domain of RIα and full-length RIIα were each fused with green fluorescent protein (GFP) and cloned into pEGFPN1 (Clontech, Palo Alto, Calif.). […] The AKB domain was detected by immuno-staining with monoclonal antibodies against the Flag-tag (Kodak, Rochester, N.Y.) followed by rhodamine-conjugated secondary antibody (Jackson Lab, Bar Harbor, Me.). […]
In this assay, the AKB domain within the C-terminal 156 residues of D-AKAP2 from mouse (Val) and human (Ile) was fused to the mitochondrial anchoring domain from D-AKAP1 and tethered to the outer mitochondrial membrane (Chen et al. (1997) J. Biol. Chem., 272:15247-15257; and Huang et al. (1997) J. Biol. Chem., 272:8057-8064). The binding of the AKB domain with the PKA regulatory domains was detected as the co-transfected PKA regulatory domains co-localized to the mitochondria. […]

The record followed here is patent US7432342B2, “Kinase anchor protein muteins, peptides thereof and related documents” (Sequenom, Inc., priority 2002, dated 2008).

T1 sequence (P00514 2-135 limits assumed): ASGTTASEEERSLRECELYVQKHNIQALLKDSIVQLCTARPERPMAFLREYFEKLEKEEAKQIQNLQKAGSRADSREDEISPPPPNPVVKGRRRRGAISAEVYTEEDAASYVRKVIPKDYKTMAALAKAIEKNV

B1: Ile (646) variant: D-AKAP2 AKB domain with Ile at amino acid 646 (SEQ ID NO:64), tested as GST fusion or mitochondria-targeted fusion construct (protein, listed as Homo sapiens)
chain: MRGAGPSPRQSPRTLRPDPGPAMSFFRRKVKGKEQEKTSDVKSIKASISVHSPQKSTKNHALLEAAGPSHVAINAISANMDSFSSSRTATLKKQPSHMEAAHFGDLGRSCLDYQTQETKSSLSKTLEQVLHDTIVLPYFIQFMELRRMEHLVKFWLEAESFHSTTWSRIRAHSLNTMKQSSLAEPVSPSKKHETTASFLTDSLDKRLEDSGSAQLFMTHSEGIDLNNRTNSTQNHLLLSQECDSAHSLRLEMARAGTHQVSMETQESSSTLTVASRNSPASPLKELSGKLMKSIEQDAVNTFTKYISPDAAKPIPITEAMRNDIIARICGEDGQVDPNCFVLAQSIVFSAMEQEHFSEFLRSHHFCKYQIEVLTSGTVYLADILFCESALFYFSEYMEKEDAVNILQFWLAADNFQSQLAAKKGQYDGQEAQNDAMILYDKYFSLQATHPLGFDDVVRLEIESNICREGGPLPNCFTTPLRQAWTTMEKVFLPGFLSSNLYYKYLNDLIHSVRGDEFLGGNVSPTAPGSVGPPDESHPGSSDSSASQSSVKKASIKILKNFDEAIIVDAASLDPESLYQRTYAGKMTFGRVSDLGQFIRESEPEPDVRKSKGSMFSQAMKKWVQGNTDEAQEELAWKIAKMIVSDIMQQAQYDQPLEKSTKL
modifications: GST or mitochondria-targeting fusion
B1: the “targeting of RIα to the mitochondria” value was “decrease in mitochondrial localization”. For the same molecule, where the note is “listed as lie variant”, the “targeting of RIα to the mitochondria” value is “unable to target RIα”.
